Where “and” joins values, the source holds several entries; their conditions need not be identical. Equal values may be shown once.
Key:
Assay type in all cases: in vivo
[1] = test system: middle cerebral artery occlusion (MCAO) model in C57BL/6J mice; assay: Cerebral infarction area in middle cerebral artery occlusion (MCAO) model (TTC staining); conditions: vs model group
Description: Male C57BL/6J wild-type mice were all purchased from Guangdong Experimental Animal Center. The male C57BL/6J wild-type mice were 8 weeks old, when they were subjected to establish middle cerebral artery occlusion (MCAO) model.
(§1) (3) MS-SOD1 group (10 mice): mice aged 4 weeks were fed with drinking water supplemented with MS-SOD for 4 weeks (3 U/day/g body weight), and then subjected to establish middle cerebral artery occlusion model;
(§2) (4) MS-SOD2 group (10 mice): after establishing middle cerebral artery occlusion model, the mice were intragastrically administered with MS-SOD 600 U once when they waked up from the anesthesia. […]
At 24 hours after MCAO model establishment, the head was cut off and the brain was taken after anesthesia. […] The infarction area of each territory was measured by ImageJ software. […] The total infarction area was calculated by integrating the infarction territories between sections.
(§3) Finally, the differences of different intervention conditions and MCAO model establishment on the degree of cerebral injury and neurological severity in mice were analyzed. All data were expressed as mean ±standard deviation. […]

[2] = test system: middle cerebral artery occlusion (MCAO) model in C57BL/6J mice; assay: Modified neurological severity score in MCAO model; conditions: vs model group
Method: as §1, §2
The procedure was performed on each group of mice. […] The mice in groups 2-4 were scored by double blind method.
as §3

[3] = test system: cerebral ischemia model in Albino strain zebrafish; assay: Ponatinib-induced cerebral ischemia model in zebrafish; conditions: for Number of zebrafish with cerebral ischemia / Incidence of cerebral ischemia: n = 20; for Incidence of cerebral ischemia: model control 100%
Method: Melanin allele mutated Albino strain zebrafish at 2 days post fertilization (2 dpf) was administered with an aqueous ponatinib solution (1 μg/mL) for 18 hours to establish a cerebral ischemia model in zebrafish. 180 melanin allele mutated Albino strain zebrafishes at 2 days post fertilization (2 dpf) were randomly selected. 30 zebrafishes were treated in each well (experiment group), and aqueous MS-SOD solutions with concentrations of 222, 667 and 2000 μg/mL were administrated respectively, the concentration of positive control drug aspirin was 50 μg/m L, and the normal control group and the model control group were set at the same time. The volume of each well was 3 mL. After MS-SOD treatment for a period of time, except for the normal control group, all the other experiment groups were simultaneously administrated with aqueous ponatinib solution to induce the cerebral ischemia model in zebrafish. After 18 hours of co-treatment with MS-SOD and ponatinib, 20 fish were randomly selected from each well and stained with o-Dianisidine. After staining, photos were taken and data were collected to count the number of zebrafish with cerebral ischemia and calculate the incidence of cerebral ischemia in zebrafish of each experiment group.

[4] = test system: cerebral hemorrhage model in wild-type AB strain zebrafish; assay: Movement velocity in simvastatin-induced cerebral hemorrhage model in zebrafish; conditions: for Movement velocity (mean ± SE): n = 10, model control 80, normal control 198 mm/s
Method: 5 dpf wild-type AB strain zebrafish was administered with an aqueous simvastatin solution (0.5 μM) for 18 hours to establish a cerebral hemorrhage model in zebrafish. 180 wild-type AB strain zebrafishes at 5 days post fertilization (5 dpf) were randomly selected and put in a six-well plate, 30 per well (experiment group). Aqueous MS-SOD solutions with concentrations of 222, 667 and 2000 μg/mL were administrated respectively, the concentration of positive control drug icariin was 30 μM, and the normal control group and the model control group were set at the same time. The volume of each well was 3 mL. After treatment of zebrafishes with samples for 4 hours, except for the normal control group, the other experiment groups were treated with simvastatin for 18 hours to establish the cerebral hemorrhage model. After the treatment, 10 zebrafishes from each group were randomly selected to measure the movement velocity (V) of zebrafish using a behavioral analyzer. The statistical significance of the movement velocity was used to evaluate the behavioral improvement effect of MS-SOD on cerebral hemorrhage. The formula of the behavioral improvement effect of MS-SOD on cerebral hemorrhage was as follows: [formula] Statistical analysis was performed using variance analysis and Dunnett's T-test, and p<0.05 indicated a significant difference.

B1: MS-SOD: manganese superoxide dismutase with high stability, gene from Thermus thermophilus HB27 expressed in E. coli; amino acid sequence SEQ ID NO: 4 (protein)
chain: MPYPFKLPDLGYPYEALEPHIDAKTMEIHHQKHHGAYVTNLNAALEKYPYLHGVEVEVLLRHLAALPQDIQTAVRNNGGGHLNHSLFWRLLTPGGAKEPVGELKKAIDEQFGGFQALKEKLTQAAMGRFGSGWAWLVKDPFGKLHVLSTPNQDNPVMEGFTPIVGIDVWEHAYYLKYQNRRADYLQAIWNVLNWDVAEEFFKKA
modifications: Amino acid sequence for MS-SOD
- area of cerebral injury ([1]; MS-SOD1 group: 3 U/day/g body weight for 4 weeks before MCAO, P=0): significantly reduced
- area of cerebral injury ([1]; MS-SOD2 group: 600 U intragastrically once after MCAO, P=0.015): significantly reduced
- neurological severity score ([2]; MS-SOD1 group: 3 U/day/g body weight for 4 weeks before MCAO, P=0.281): not significantly improved
- neurological severity score (mNSS) ([2]; MS-SOD2 group: 600 U intragastrically once after MCAO, P=0.05): significantly reduced
- Improvement effect on cerebral ischemia ([3]; MS-SOD 222 μg/mL): 60%
- Number of zebrafish with cerebral ischemia ([3]; MS-SOD 222 μg/mL): 8
- Incidence of cerebral ischemia ([3]; MS-SOD 222 μg/mL): 40%
- Improvement effect on cerebral ischemia ([3]; MS-SOD 667 μg/mL): 65%
- Number of zebrafish with cerebral ischemia ([3]; MS-SOD 667 μg/mL): 7
- Incidence of cerebral ischemia ([3]; MS-SOD 667 μg/mL): 35%
- Improvement effect on cerebral ischemia ([3]; MS-SOD 2000 μg/mL): 55%
- Number of zebrafish with cerebral ischemia ([3]; MS-SOD 2000 μg/mL): 9
- Incidence of cerebral ischemia ([3]; MS-SOD 2000 μg/mL): 45%
- Movement improvement effect ([4]; MS-SOD 222 μg/mL): −2%
- Movement velocity (mean ± SE) ([4]; MS-SOD 222 μg/mL): 78 mm/s and 78 ± 4 mm/s
- Movement improvement effect ([4]; MS-SOD 667 μg/mL): 7%
- Movement velocity (mean ± SE) ([4]; MS-SOD 667 μg/mL): 88 mm/s and 88 ± 3 mm/s
- Movement improvement effect ([4]; MS-SOD 2000 μg/mL): 53%
- Movement velocity (mean ± SE) ([4]; MS-SOD 2000 μg/mL): 143 mm/s and 143 ± 24 mm/s

From patent US20220168400A1, “USE OF A MANGANESE SUPEROXIDE DISMUTASE WITH HIGH STABILITY IN THE PREVENTION OR TREATMENT OF CEREBRAL STROKE” (CARRY HEALTH BIOPHARMACEUTICALS (HANGZHOU) CO., LTD., priority 2019, published 2022)
